{"source": "patent US20010018511A1", "about": "(CANCER RESEARCH CAMPAIGN TECHNOLOGY, published 2001)", "binders": {"B1": {"name": "phage clone 12/1 (peptide)", "chain": "MPRFMDYWEGLN", "notes": "Tested as whole phage showing the peptide; not shown: minor coat protein III of the filamentous phage of the display library; the peptide stands at its N-terminus; phage stra"}, "B2": {"name": "phage clone 12/5 (peptide)", "chain": "TGPAFTHYWATF", "notes": "as for B1"}, "B3": {"name": "phage clone BB3 (peptide)", "chain": "PAFSRFWSDLSAGAH", "notes": "Tested as whole phage showing the peptide; also called hdm2 phage; hdm2-phage; not shown: minor coat protein III of the filamentous phage of the display library; the peptide stands at its N-terminus; phage stra"}, "B4": {"name": "phage clone 12/2 (peptide)", "chain": "VQNFIDYWTQQF", "notes": "as for B1"}, "B5": {"name": "phage clone 15/5 (peptide)", "chain": "PRPALVFADYWETLY", "notes": "as for B1"}, "B6": {"name": "phage clone 15/1 (peptide)", "chain": "IDRAPTFRDHWFALV", "notes": "as for B1"}}, "biological_target": "T1, GST-hdm2 (1-188) (S. japonicum; human, UniProt Q00987 1-188)", "T1 construct": "range 1-188; Fusion made in E. coli BL21 from pGEX-2T; GST, linker, hdm2 1-188 in this order; also called GST-hdm2 protein", "T1 sequence (Q00987 1-188)": "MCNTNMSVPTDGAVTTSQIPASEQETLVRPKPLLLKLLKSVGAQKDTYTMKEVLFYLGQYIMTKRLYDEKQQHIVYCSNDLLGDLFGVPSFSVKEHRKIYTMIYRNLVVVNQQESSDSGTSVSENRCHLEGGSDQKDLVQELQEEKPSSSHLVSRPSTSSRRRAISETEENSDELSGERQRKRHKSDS", "assay": "single clone phage ELISA on coated antigen", "procedure": "Amplified and purified phages from this round of biopanning are tested in an ELISA on the proteins used for their selection. For single clone screening E.coli K91 cells are infected with appropriate phage dilutions and spread on LB agar with 20 μg/ml tetracycline. Single colonies are transfered to wells of a 96-well tissue culture plate containing 200 μl 2×YT medium with 20 μg/ml tetracycline per well. Phage supernatant is collected for ELISA screening after a 24 hour incubation at 37° C. with shaking. ELISA positive clones are grown up as 2 ml bacterial cultures in 2×YT medium with 20 μg/ml tetracycline for 24 hours. Phage are PEG precipitated and redissolved in 200 μl TBS buffer. Phage DNA is extracted with phenol/chloroform and ethanol precipitated. The DNA pellet is redissolved in 10 μl water and used as template for sequencing (Sequenase).\n100 μl phage suspension (supernatant or PEG concentrated phage) is diluted in PBST-M and added for three hours at 4° C. Bound phages are reacted with 100 μl HRP-labelled sheep anti-M13 antibody (Pharmacia) for one hour at room temperature followed by substrate development with 100 μl TMB/H202 (0.1 mg/ml TMB, 0.3% H₂O₂ in 0.1 M Na-acetate, pH 6.0) for 15 min. The reaction is stopped by adding 100 μl 1 M sulphuric acid to the substrate and the absorbance is measured at 450 nm. All washings between the incubation steps are done with tap water.", "data": [{"binder": "B1", "values": [{"measurement": "binding result", "result": "binds"}]}, {"binder": "B2", "values": [{"measurement": "binding result", "result": "binds"}]}, {"binder": "B3", "values": [{"measurement": "binding result", "result": "binds"}]}, {"binder": "B4", "values": [{"measurement": "binding result", "result": "binds"}]}, {"binder": "B5", "values": [{"measurement": "binding result", "result": "binds"}]}, {"binder": "B6", "values": [{"measurement": "binding result", "result": "binds"}]}]}
